This is an account of results in article PMC5595714, “Activation of secondary cell wall biosynthesis by miR319‐targeted TCP4 transcription factor”.

The target of series [1] is T1, rTCP4-HIS (UniProt Q8LPR5 1-420).
T1 sequence: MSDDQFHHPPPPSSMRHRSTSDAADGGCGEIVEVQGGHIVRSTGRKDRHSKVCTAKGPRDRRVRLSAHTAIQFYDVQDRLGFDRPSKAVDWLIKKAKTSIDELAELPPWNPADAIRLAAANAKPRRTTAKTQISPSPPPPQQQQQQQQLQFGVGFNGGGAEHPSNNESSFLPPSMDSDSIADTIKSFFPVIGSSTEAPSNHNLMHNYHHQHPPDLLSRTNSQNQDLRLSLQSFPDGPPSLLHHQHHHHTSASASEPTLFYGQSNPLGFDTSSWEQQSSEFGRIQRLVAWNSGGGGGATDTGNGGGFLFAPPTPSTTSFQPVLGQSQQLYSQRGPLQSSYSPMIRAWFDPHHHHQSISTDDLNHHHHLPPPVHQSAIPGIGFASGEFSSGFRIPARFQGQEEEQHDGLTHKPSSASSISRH
In words: EMSA; 20 mM HEPES-KOH pH 7.8, 100 mM KCl, 1 mM EDTA, 0.1% BSA, 10 ng herring sperm DNA, 10% glycerol; 100 fmol probe, 1 ug protein, 20 uL, 30 min, room temperature. Conditions: protein: recombinant; tags: His (pET32a fusion); chain copies: 2; label: biotin 3'; blunt. In general terms: A gel shift assay detects complexes by their altered migration in electrophoresis.

The target in series [2] is T2, TCP4-HIS (UniProt Q8LPR5 1-420).
T2 sequence: T1 sequence
The description is as above. As to conditions: protein: recombinant; tags: His (pET32a fusion); chain copies: 2; label: biotin 3'; blunt.

For series [3], the target named is T2, TCP4-HIS. In words: competition; 10x and 50x unlabeled probe against N1, dose-dependent; 20 mM HEPES-KOH pH 7.8, 100 mM KCl, 1 mM EDTA, 0.1% BSA, 10 ng herring sperm DNA, 10% glycerol; 100 fmol probe, 1 ug protein, 20 uL, 30 min, room temperature. As to conditions: protein: recombinant; tags: His (pET32a fusion); chain copies: 2; blunt.

B1: VND7 promoter probe (dsDNA)
DNA 1: ATTGTTGGGTGGTCCCATAAAAAT
DNA 2: ATTTTTATGGGACCACCCAACAAT
With B1, the binding result in series [1] and in series [2] was “binds” each time.

B2: VND7 promoter cold probe (dsDNA)
DNA 1: ATTGTTGGGTGGTCCCATAAAAAT
DNA 2: ATTTTTATGGGACCACCCAACAAT
Regarding B2, the binding result in series [3] is recorded as “binds”.
